Experimental findings from the supplement of paper PMC9170038 are described below.

The subject of this data set is K4 kissing-loop RNA reporter. The experiment in a line: apparent KD of K4 kissing-loop reporter; higher = weaker reporter binding. As to conditions: Eterna round: R107. Here is the method:
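RNA-MaP round R107: designed RNA switches with theophylline, tryptophan, arginine or FMN aptamers are transcribed on-chip within common flanks. They are titrated with a labelled K4 kissing-loop RNA reporter in RNA-MaP buffer (100 mM Tris pH 7.5, 80 mM KCl, 4 mM MgCl2), without ligand or with the indicated ligand. Median apparent KD per design.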

Setting [1] is: input ligand: theophylline 20 uM.
[2] abbreviates: input ligand: tryptophan 2.4 mM.
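Also: bound reporter read as fluorescence of individual clusters on recovered sequencing chips by microscopy, with normalized cluster intensities fitted with a binding model.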

“GGCCACGGGCGAGGAUAUGGGCAUGAUUCAUCCUGGAGUGAUGUUCCAGGUCCUACGUUUCGAGCACCAGAAGGCGUUUGUUGCU [Biazaqure]”: the “apparent KD of K4 kissing-loop reporter” value (input ligand: FMN 200 uM) came to 0.166 µM; the “apparent KD of K4 kissing-loop reporter” value (input ligand: arginine 13.2 mM) was found to be 0.521 µM; the “apparent KD of K4 kissing-loop reporter” value (input ligand: none) is 0.646 µM; the “apparent KD of K4 kissing-loop reporter” value under setting [1] was determined as 0.489 µM; the “apparent KD of K4 kissing-loop reporter” value under setting [2] came to 0.524 µM.

For “GGCCCGGGCGCGGCCGCCACUCCCUCGUACCGCAAGGUAUGAUACCGAGUGAUGUUCGGUUGGAGGAGGACCGGGCGCCCGGGCC [#2 Exclusion - Tryptophan B Attempt #5 (HarryS)]”, the “apparent KD of K4 kissing-loop reporter” value amounted to 0.122 µM (input ligand: FMN 200 uM); 0.101 µM (input ligand: arginine 13.2 mM); 0.108 µM (input ligand: none); 0.0774 µM under setting [1]; 0.0911 µM under setting [2].

As for “GGCCUGGUCGCCUAGUGAUUGUCGGUAGGACGAGGACCGGUACGGCCGCCACUCGGCUUACCCAGUGAUGUUGGGUAUCCGUGGC [Onercelama]”, the “apparent KD of K4 kissing-loop reporter” value (input ligand: FMN 200 uM) came to 0.194 µM; the “apparent KD of K4 kissing-loop reporter” value (input ligand: arginine 13.2 mM) was 0.136 µM; the “apparent KD of K4 kissing-loop reporter” value (input ligand: none) was determined as 0.177 µM; the “apparent KD of K4 kissing-loop reporter” value under setting [1] was found to be 0.176 µM; the “apparent KD of K4 kissing-loop reporter” value under setting [2] stood at 0.235 µM.

As to “GGCGCUGCCUGUGCCGCCCUCCUCGUCCCUCGAGGACCGGUACGGCCGCCACUCGAGUGAUGUUCGGGUAGCCCUCCCUGCCAGC [BDazzled - #23 Exc. Tryptophan A]”, the “apparent KD of K4 kissing-loop reporter” value reads like this: (input ligand: FMN 200 uM) 0.585 µM; (input ligand: arginine 13.2 mM) 0.407 µM; (input ligand: none) 0.567 µM; under setting [1], 0.511 µM; under setting [2], 0.34 µM.

On to “GGCGGCCGCGCGCAAGCGCGGCCGGCCGAUACCAGCGCGCCGGCGCGCCCUUGGCAGCGGCGCCGAGUGAUGUUCGGCCUGCCGG [#2 Same State - Theophylline A Attempt #9 (HarryS)]”, for which the “apparent KD of K4 kissing-loop reporter” value came out at 0.477 µM (input ligand: FMN 200 uM); 0.267 µM (input ligand: arginine 13.2 mM); 0.449 µM (input ligand: none); 0.374 µM under setting [1]; 0.401 µM under setting [2].

In the case of “GGCGGGUGCCCGUAAGGGUGCCCGGCCGAUACCAGCGCGACGGCGCGCCCUUGGCAGCGGCGCCGAGUGAUGUUCGGCCUGCCGU [#2 Same State - Theophylline A Attempt #24 (HarryS)]”, the “apparent KD of K4 kissing-loop reporter” value came out at 0.0927 µM (input ligand: FMN 200 uM); 0.105 µM (input ligand: arginine 13.2 mM); 0.0906 µM (input ligand: none); 0.0845 µM under setting [1]; 0.151 µM under setting [2].

Turning to “GGCUUGCCAGUGAUGUUGGCAUAUUCUGAAGGAGCGCGUGAAAACGCAGGUAGGUCGCAGAACCUUGCCAACUAUUUUAGUUGCC [Ex Arginine A K4 26]”, the “apparent KD of K4 kissing-loop reporter” value is, setting by setting: (input ligand: FMN 200 uM) 0.242 µM; (input ligand: arginine 13.2 mM) 0.21 µM; (input ligand: none) 0.237 µM; under setting [1], 0.334 µM; under setting [2], 0.21 µM.

Regarding “GGGAAACCCAAUCAUACGGCGGUUCUUAGUCGAGGACCGGUACGGCCGCCACUCGAACUUGCUAGUGAUGUUAGCUUAUCGAGCU”, the “apparent KD of K4 kissing-loop reporter” value reads like this: (input ligand: FMN 200 uM) 0.221 µM; (input ligand: arginine 13.2 mM) 0.296 µM; (input ligand: none) 0.253 µM; under setting [1], 0.265 µM; under setting [2], 0.162 µM.

Turning to “GGGAGUAGUGCGGCCGCCACUGAGAAAGAAGAAGAAUAUAGUGAUGUUAUAUAGGAAAUAAAGAACAGGACCGGGCAUUAGAUUU [SSTRyptB.N]”, the “apparent KD of K4 kissing-loop reporter” value is 0.269 µM (input ligand: FMN 200 uM); 0.216 µM (input ligand: arginine 13.2 mM); 0.244 µM (input ligand: none); 0.21 µM under setting [1]; 0.149 µM under setting [2].

Take “GGGAGUAGUGCGGCCGCCACUGAGAAAGAAGAAGAAUAUAGUGAUGUUAUAUAGGAAAUAAAGAAUAGGACCGGGCAUUAGAUUU [SSTRyptB.M]”: the “apparent KD of K4 kissing-loop reporter” value by setting is: (input ligand: FMN 200 uM) 0.259 µM; (input ligand: arginine 13.2 mM) 0.211 µM; (input ligand: none) 0.235 µM; under setting [1], 0.181 µM; under setting [2], 0.211 µM.

On to “GGGAGUAGUGCGGCCGCCACUGAGAAAGUAGAAGAAUAUAGUGAUGUUAUAUAGGAAUAAAAGAACAGGACCGGGCAUUAGAUUU [SSTRyptB.U]”, for which the “apparent KD of K4 kissing-loop reporter” value stood at 0.23 µM (input ligand: FMN 200 uM); 0.214 µM (input ligand: arginine 13.2 mM); 0.23 µM (input ligand: none); 0.203 µM under setting [1]; 0.174 µM under setting [2].

Regarding “GGGAGUAGUGCGGCCGCCACUGUGAAAGAAGAAGAAUAUAGUGAUGUUAUAUAGGAAAUAAAGAAUAGGACCGGGCAUUAGAUUU [SSTRyptB.L]”, the “apparent KD of K4 kissing-loop reporter” value runs as follows: (input ligand: FMN 200 uM) 0.282 µM; (input ligand: arginine 13.2 mM) 0.19 µM; (input ligand: none) 0.221 µM; under setting [1], 0.186 µM; under setting [2], 0.161 µM.

For “GGGAGUAGUGCGGCCGCCACUGUGAAAGAAGAAGAAUAUAGUGAUGUUAUAUAGGAAGGGAAGAAUAGGACCGGGCAUUAGAUUU [SSTRyptB.aA]”, the “apparent KD of K4 kissing-loop reporter” value (input ligand: FMN 200 uM) came to 0.185 µM; the “apparent KD of K4 kissing-loop reporter” value (input ligand: arginine 13.2 mM) is 0.355 µM; the “apparent KD of K4 kissing-loop reporter” value (input ligand: none) is 0.417 µM; the “apparent KD of K4 kissing-loop reporter” value under setting [1] is 0.19 µM; the “apparent KD of K4 kissing-loop reporter” value under setting [2] was 0.186 µM.

As for “GGGAGUAGUGCGGCCGCCACUGUGAAAGAAGAAGAAUAUAGUGAUGUUAUAUAGGAAUAAAAGAAUAGGACCGGGCAUUAGAUUU [SSTRyptB.R]”, the “apparent KD of K4 kissing-loop reporter” value was 0.334 µM (input ligand: FMN 200 uM); 0.231 µM (input ligand: arginine 13.2 mM); 0.134 µM (input ligand: none); 0.113 µM under setting [1]; 0.139 µM under setting [2].

For “GGGAUGUAGUGAUGUUAUAUUGGAUGUAGACGAGGACCGGUACGGCCGCCACUCGUGAUGGCUGCUAGCACGUUUCGAUGUUUGC [ExTryptoA.Cs]”, the “apparent KD of K4 kissing-loop reporter” value stood at 0.41 µM (input ligand: FMN 200 uM); 0.429 µM (input ligand: arginine 13.2 mM); 0.424 µM (input ligand: none); 0.433 µM under setting [1]; 0.33 µM under setting [2].

On to “GGGCCAUGGUUUUUGCUAGUGAUGUUAGACCGAGGACCGGUACGGCCGCCACUCGGCAAGUCUUUCGUUAGAUCUCUGGGAAGUC [theeternabot_exclusion_KL_Trp_A_45]”, for which the “apparent KD of K4 kissing-loop reporter” value reads like this: (input ligand: FMN 200 uM) 0.81 µM; (input ligand: arginine 13.2 mM) 0.661 µM; (input ligand: none) 1.11 µM; under setting [1], 1.16 µM; under setting [2], 0.578 µM.

Take “GGGCGCGGCGCGGCCGCCACUGGGCCUGGGCGCUCGCUGAGUGAUGUUCGCCGGCGGCUGGGUCGUAGGACCGGGUGCCGGCUGG [BDazzled - #3 SS Tryptophan B]”: the “apparent KD of K4 kissing-loop reporter” value (input ligand: FMN 200 uM) was determined as 0.61 µM; the “apparent KD of K4 kissing-loop reporter” value (input ligand: arginine 13.2 mM) was 0.49 µM; the “apparent KD of K4 kissing-loop reporter” value (input ligand: none) was 1.27 µM; the “apparent KD of K4 kissing-loop reporter” value under setting [1] worked out at 0.902 µM; the “apparent KD of K4 kissing-loop reporter” value under setting [2] worked out at 0.452 µM.

Turning to “GGGCGUGGCGCGGCCGCCACUGCGCCUGGGUGCUCGCUGAGUGAUGUUCGUCGGCGGUUGGGUGGUAGGACCGGGUGCUGGCCGG [BDazzled - #12 SS Tryptophan B]”, the “apparent KD of K4 kissing-loop reporter” value is, setting by setting: (input ligand: FMN 200 uM) 0.773 µM; (input ligand: arginine 13.2 mM) 0.318 µM; (input ligand: none) 0.581 µM; under setting [1], 0.595 µM; under setting [2], 0.471 µM.

As to “GGGCGUGGCGCGGCCGCCACUGCGCCUGGGUGCUCGCUGAGUGAUGUUCGUCGGCGGUUGGGUGGUAGGACCGGGUGCUGGUCGG [BDazzled - #11 SS Tryptophan B]”, the “apparent KD of K4 kissing-loop reporter” value by setting is: (input ligand: FMN 200 uM) 0.64 µM; (input ligand: arginine 13.2 mM) 0.407 µM; (input ligand: none) 0.629 µM; under setting [1], 0.517 µM; under setting [2], 0.563 µM.

Take “GGGUCUGCUCGAAGGAGCGCCCUGACAGGUUGCUGCCGUGGGCAGUGAUGUUGCUCAGUCCGGCAGGUAGGUCGCGAGCAGACCC”: the “apparent KD of K4 kissing-loop reporter” value (input ligand: FMN 200 uM) was determined as 0.109 µM; the “apparent KD of K4 kissing-loop reporter” value (input ligand: arginine 13.2 mM) stood at 0.118 µM; the “apparent KD of K4 kissing-loop reporter” value (input ligand: none) turned out to be 0.102 µM; the “apparent KD of K4 kissing-loop reporter” value under setting [1] came out at 0.0898 µM; the “apparent KD of K4 kissing-loop reporter” value under setting [2] came to 0.105 µM.

For the sequence “GGGUGGUAGGCGGCCGCCACUCUGAGCACCCACUGAGUGAUGUUCGUGGCGUAAGCCUGUUCUUAGAGGACCGGGUUUGUUGUUC [Exclusion Tryptophan B GF 17]”, the “apparent KD of K4 kissing-loop reporter” value is 0.207 µM (input ligand: FMN 200 uM); 0.088 µM (input ligand: arginine 13.2 mM); 0.178 µM (input ligand: none); 0.128 µM under setting [1]; 0.144 µM under setting [2].
